Reference: the RNAGym collection of RNA variant scans (doi:10.1073/pnas.2313332121)

B1: TPR t1 (parent)
chain: GACCAAUCUGCCCUCAGAGCUCGAGAACAUCUUCGGAUGCAGAGGAGGCAGGCUUCGGUGGCGCGAUAGCGCCAACGUCCUCAACCUCCAAUGCAUCCCACCACAUGAUGAUGCCUGAAGAGCCUUGGUUUUUUG

Variants of: B1
Test: polymerase ribozyme fitness, log enrichment relative to wild type (log ratio); higher = more active; in vitro selection for triplet polymerase activity
Outline: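 Fitness measures genotype enrichment against wild-type enrichment on a logarithmic scale, with inverse-variance-weighted averaging of replicates. The logarithm is base 2, and genotypes were kept only with ≥10 input reads and ≥1 read per output in Illumina sequencing. The sequenced libraries came from one triplicate in vitro selection round, including frozen incubation at −7 °C, of PCR-built, transcribed mutant libraries of each subunit of a heterodimeric triplet polymerase ribozyme.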

Compared with GACCAAUCUGCCCUCAGAGCUCGAGAACAUCUUCGGAUGCAGAGGAGGCAGGCUUCGGUGGCCCGAUAGCGCCAACGUCCUCAACCUCCAAUGAAUCCCACCACAUGAUGAUGCCUGAAGAGCCUUGGUUUUUUG [G63C C94A], GACCAAUUUGCCCUCAGAGCUCGAGAACAUCUUCGGAUGCAGAGGAGGCAGGCUUCGGUGGCGCGAUAGAGCCAACGUCCUCAACCUCCAAUGCAUCCCACCACAUGAUGAUGCCUGAAGAGCCUUGGUUUUUUG [C8U C70A] is higher in “polymerase ribozyme fitness (log ratio)” value: -1.52 for the first, -1.06 for the second.

Going from GACCAAUCUGCCCUCAGAGCUCGAGAACAUCUUCGGAUGCAGAGGAGGCAGGCUUCGGUGGCGCGAUAGCGCCAACGUCCUCAACCUCCAAUGCAUCCCACCACAUGAUGAUGCCUGAUGAGCCUUGGUUUAUUG [A119U U132A] to GACCAAUCUGCCCUCAGAGGUCGAGAACAUCUUCGGAUGCAGGGGAGGCAGGCUUCGGUGGCGCGAUAGCGCCAACGUCCUCAACCUCCAAUGCAUCCCACCACAUGAUGAUGCCUGAAGAGCCUUGGUUUUUUG [C20G A43G], the “polymerase ribozyme fitness (log ratio)” value falls from -0.132 to -3.54.

GACUAAUCUGCCCUCAGAGCUCGAGAACAUCUUCGGAUGCAGAGGAGGCAGGCUUCGGUGCCGCGAUAGCGCCAACGUCCUCAACCUCCAAUGCAUCCCACCACAUGAUGAUGCCUGAAGAGCCUUGGUUUUUUG [C4U G61C] and GACCGAUCUGCCCUCAGAGCUCGAGAACAUCUUCGGAUGCAGAGGAGGCAAGCUUCGGUGGCGCGAUAGCGCCAACGUCCUCACCCUCUAAUGCAUCCCACCACAAGAUGACGCCUGAAGAGCCUUGGUUUUUUG [A5G G51A A84C C89U U106A U112C] are within 0.2 log units of each other in “polymerase ribozyme fitness (log ratio)” value: -2.8 for the first, -2.68 for the second.

First: GACCAAGAUGCCCUCAGAGCUCGAGAACAUCUUCGGAUGCAGAAGAGGCAGGCUUCGGUGGCGCGAUAGCGCCAACGUCCUCAACCUCCAAUGCAUCCCACCACAUGAUGAUGCCUGAAGAGACUUGGUUUUUUG [U7G C8A G44A C123A]
Second: GAUCAAUCUGCCCUCAGAGCUCGAGAACAUCUUCGGAUGCAGAGGAGGCAGGCUUCGGUGGAGCGAUAGCGUCAACGUCCUCAACCUCCAAUGCAUCCCACCACAUGAUGAUGCCUGAAGAGCCUUGGUUUUUUG [C3U C62A C72U]
The “polymerase ribozyme fitness (log ratio)” value of the first is higher: 1.17 for the first, -0.819 for the second.

First: GACCAAUCUGCCCUCAGAGCUCGAGAACAUCUUCGGAUGCAGAGGAGGCAGGCUUCGGUGGCGCGAUAUCGCCAACGUCCUCAACCUCCAAUGCAUCCCACCACAUGAUGAUGCCUGAAGAGCCUUGGUAUUUUG [G69U U130A]
Second: GACCAAUCUGCCCUCAGAGCUCGAGAACAUCUUCGGAUGCAGAGGAGGCAGGCUUCGGUGGCCCGAUAGCGCCAACGUCCUCAACCUCCAAUGCAUCCCACCACAUGAUGAUGCCUGAAGAGCCUUGCUUUUUUG [G63C G128C]
The “polymerase ribozyme fitness (log ratio)” value of the first is higher: -0.136 for the first, -3.04 for the second.

Compared with GACCAAUGUUCCCUCAGAGCUCGAGAACAUCUUCGUAUGCAGAGGAGGCAGGCUUCGGUGGCGCGAUAGCGCCAACGUCCUCAACCUCCAAUGCAUCCCACCACAUGAUGAUGCCUGAAGAGCCUUGGUUUUUUG [C8G G10U G36U], GACCAAUCUGCCCUCAGAGCUCGAGAACAUCUUCGGAUGCAGAGGAGGCAGGCUUCGGUGGCGCGAUAUCGCCAACGUCCGCAACCUCCAAUGCAUCCCACCACAUGAUGAUGCCCGAAGAGCCUUGGUUUUUUG [G69U U81G U116C] is lower in “polymerase ribozyme fitness (log ratio)” value: -0.687 for the first, -1.49 for the second.

Compared with GACCAAUAUGCCCUCAGAGCUCGAGAACAUCUUCGGAUGCAGAGGAGGAAGGCUUCGGUGGCGUGAUAGCGCCAACGUCCUCAACUUCCAAUUUAUCCCACCACAUGAUGAUGCCUGAAGAGACUUGGUUUUUUG [C8A C49A C64U C86U G93U C94U C123A], GACCAAUCUGCCCUCAGAGCUCGAGAACGUCUUCGGAUGCAGAGGAGGCAGGCUUCGGUGGCGCGAUACCGCCAACGUCCUCAACCUCCAAUGCAUCCCACCACAUGAUGAUGCCUGAAAAGCCUUGGUUUUUUG [A29G G69C G120A] is lower in “polymerase ribozyme fitness (log ratio)” value: -0.145 for the first, -2.54 for the second.

Going from GACCAAUCUGCCCUCAGAGCUCGGGAACAUCUUCGGAUGCAGAGGAGACAGGCUUCGGUGGCGUGAUAGCGCCAACGUCCCCAACCUCCAAUGCAUCCCACCACAUGUUGAUGCCUGAACAGCCUUGGUUUUUUG [A24G G48A C64U U81C A108U G120C] to GACCAACCUGCCCUCAGAGCUCGAGAAGAUCUUCGGAUGCAGAGGAGGCAGGCUUCGGUGUCGCGAUAGCGCCAACGUCCUCAACCUCCAAUGCAUCCCACCACAUGAUGAUGCCUGAAGAGCCUUGGUUUUUUG [U7C C28G G61U], the “polymerase ribozyme fitness (log ratio)” value rises from -6 to -3.14.

Going from GACCAAGCUGCCCUCAGAGCUCGAGAACAUCUUCGGAUGCAGAGGAGGCAGGCUUCGGUGGCGCGAUAGCGCCAACUUCCUCAACCUCCAAUGCAUCCCACCACAUGAUGAUGCCUGAAGAGCCUUGGUUUUUUG [U7G G77U] to GACCAAUCUGCCCUCAGAGCUCGAGAACAUCUUCGGAUGCAGAGGAGGCAGGCUUCGGUGGUGCGAUAACGCCAACGUCCUCAACCUCCAAUGCAUCCCACCACAUGAUGAUGCCUGAAGAGCCUUGGUUUUUUG [C62U G69A], the “polymerase ribozyme fitness (log ratio)” value falls from 0.185 to -3.76.

Going from GACCAAUCUGCCCUCAGAGCUCGAGAACAUCUUCGGAUGCAGAGGAGGCAGGCUUCGGUAGUGCGAUAGCGCCAACGUGCUCAACCUCCAAUGCAUCCCACCACAGGAUGAUGCCUGAAGAGCCUUGGUUUUUUG [G60A C62U C79G U106G] to GACCAAUCUUCCCUCAGAGCUCGAGAACAUCUUCGGAUGCAGAGGAGGCAGACUUCGGUGGCGCGAUAGCGCCAACGUGCUCAACCUCCAAUGCAUCCCACCACAUGAUGAUGCCUGAUGAGCCUUGGUUUUUUG [G10U G52A C79G A119U], the “polymerase ribozyme fitness (log ratio)” value rises from -5.51 to -0.109.

In the case of GACCAACCUGCCAUCAGAGCUCGAGAACAUCUUCGGAUGCAGAGGAGGCAGGCUUCGGUGGCGCGAUAGCGGCAACGUCCUCAACCUCCAACGCAUCCCACCACAUGAUGAUGCCUGAAGAGCCUUGGUUUUUUG [U7C C13A C72G U92C], the “polymerase ribozyme fitness (log ratio)” value is reported as -2.47.
